Values quoted from earlier work in paper PMC8442009.

Tests used:
[1] = biological target: IL-4Rα/γc (Homo sapiens) (UniProt P24394)
[2] = biological target: IL-4Rα (Homo sapiens) (UniProt P24394)
[3] = biological target: γc (Homo sapiens) (UniProt P31785)
Sequence of UniProt P31785 (P31785 23-262): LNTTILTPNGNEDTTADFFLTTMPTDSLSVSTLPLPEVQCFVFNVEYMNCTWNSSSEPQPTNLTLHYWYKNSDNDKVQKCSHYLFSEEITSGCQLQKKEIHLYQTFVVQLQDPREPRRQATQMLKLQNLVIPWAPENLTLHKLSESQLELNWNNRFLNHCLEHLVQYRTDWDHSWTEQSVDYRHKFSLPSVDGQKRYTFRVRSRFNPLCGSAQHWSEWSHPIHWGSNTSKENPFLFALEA

Kd [1] [nM]	Kd [2] [nM]	Kd [3] [nM]	Substance
0.079	0.266		IL-4 (from UniProt P05112)
		> 500	IL-4-IL-4Rα (from UniProt P05112)
